{"source": "paper PMC12680351", "about": "“The novel GlcNAc 6-phosphate dehydratase NagS governs a metabolic checkpoint that controls nutrient signaling in Streptomyces” (PLOS Biology, 2025)", "key": {"NagS [1]": {"target": "T1, NagS (Streptomyces coelicolor, UniProt Q9K3V1, S54A)", "T1 construct": "gene SCO4393", "T1 sequence (Q9K3V1 whole entry S54A)": "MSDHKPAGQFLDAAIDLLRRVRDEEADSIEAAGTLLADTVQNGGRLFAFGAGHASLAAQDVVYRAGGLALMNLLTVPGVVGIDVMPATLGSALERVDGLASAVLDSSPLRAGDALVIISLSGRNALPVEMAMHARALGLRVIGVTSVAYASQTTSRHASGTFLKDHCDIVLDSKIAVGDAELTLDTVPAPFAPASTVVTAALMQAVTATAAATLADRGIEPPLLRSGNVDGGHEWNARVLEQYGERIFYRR", "format": "biochemical"}, "NagS [2]": {"target": "T2, NagS (Streptomyces coelicolor, UniProt Q9K3V1)", "T2 construct": "gene SCO4393; N-terminally His6-tagged NagS", "T2 sequence (Q9K3V1 1-251)": "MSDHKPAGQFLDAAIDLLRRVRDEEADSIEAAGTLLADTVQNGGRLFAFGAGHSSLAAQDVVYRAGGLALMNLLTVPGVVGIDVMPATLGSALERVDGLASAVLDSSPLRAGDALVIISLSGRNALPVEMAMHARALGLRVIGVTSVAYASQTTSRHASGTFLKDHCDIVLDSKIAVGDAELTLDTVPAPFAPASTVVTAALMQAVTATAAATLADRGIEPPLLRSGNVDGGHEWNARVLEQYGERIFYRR", "experiment": "X-ray crystal structure ([…] Å); competitive inhibition kinetics; thermal denaturation", "format": "biochemical"}, "purified protein [3]": {"substrate": "CC(=O)N[C@H]1C(O)O[C@H](COP(=O)(O)O)[C@@H](O)[C@@H]1O", "experiment": "purified protein"}, "purified protein [4]": {"substrate": "CC(=O)N[C@@H]1C(O)O[C@H](COP(=O)(O)O)[C@@H](O)[C@@H]1O", "experiment": "purified protein"}, "[5]": {"target": "the molecule itself", "experiment": "SEC; analytical size-exclusion chromatography, Superdex 200 10/300 GL, NagS at 35 uM and 70 uM, 20 mM HEPES pH 7.5, 300 mM NaCl, 5% glycerol, 1 mM DTT; calibrated with a protein standard mix (15-600 kDa)"}, "purified protein [6]": {"substrate": "CC(=O)N[C@H]1C(O)O[C@H](COP(=O)(O)O)[C@H](O)[C@@H]1O", "experiment": "purified protein", "conditions": "divalent metal cation ([…] ZnCl2 supplemented during expression)"}, "[7]": {"conditions": "catalytic site formed by both monomers, Ser54, Ser91, Glu94, Ser119, Ser121, His53 main chain, ArgB64, AsnB228, AlaB65, GlyB227"}, "[8]": {"conditions": "divalent metal cation ([…] ZnCl2 supplemented during expression)"}}, "note": "Like-named read-outs stand apart in the source and are kept apart here."}
{"molecule": "CC(=O)N[C@H]1C(O)O[C@H](COP(=O)(O)O)[C@@H](O)[C@@H]1O", "note": "(stereo partly drawn) [GlcNAc-6P]", "values": [{"measurement": "Km", "setting": "NagS [1]", "value": "850 ± 90", "unit": "µM"}]}
{"molecule": "O=C(O)[C@H](O)[C@@H](O)[C@H](O)[C@H](O)COP(=O)(O)O", "note": "[6-phosphogluconate]", "values": [{"measurement": "Ki", "setting": "NagS [2]", "value": "280 ± 30", "unit": "µM"}]}
{"molecule": "GlcNAc-6P dehydratase NagS (SCO4393) of Streptomyces coelicolor (enzyme, UniProt Q9K3V1 1-251, looked up, NagS (SCO4393), Streptomyces coelicolor A3(2) M145; calculated mass of the NagS-His6 monomer 28.29 kDa; The methods say N-terminally His6-tagged (pET-15b); the results write NagS-His6; also called NagS-His6; N-acetylglucosamine-6-phosphate dehydratase; source: E. coli Rosetta (DE3)pLysS, purified (Ni-NTA, size-exclusion chromatography on Superdex 200); not shown: His6, N-terminal, kept) MSDHKPAGQFLDAAIDLLRRVRDEEADSIEAAGTLLADTVQNGGRLFAFGAGHSSLAAQDVVYRAGGLALMNLLTVPGVVGIDVMPATLGSALERVDGLASAVLDSSPLRAGDALVIISLSGRNALPVEMAMHARALGLRVIGVTSVAYASQTTSRHASGTFLKDHCDIVLDSKIAVGDAELTLDTVPAPFAPASTVVTAALMQAVTATAAATLADRGIEPPLLRSGNVDGGHEWNARVLEQYGERIFYRR", "values": [{"measurement": "Km", "setting": "purified protein [3]; [7]", "value": "0.45 ± 0.03", "unit": "mM"}, {"measurement": "kcat", "setting": "purified protein [3]; [7]", "value": "24.7 ± 0.38", "unit": "s⁻¹"}, {"measurement": "kcat/Km", "setting": "purified protein [3]; [7]", "value": 54800, "unit": "M⁻¹ s⁻¹"}, {"measurement": "Km", "setting": "purified protein [4]", "value": "0.68 ± 0.05", "unit": "mM"}, {"measurement": "kcat", "setting": "purified protein [4]", "value": "0.9 ± 0.02", "unit": "s⁻¹"}, {"measurement": "kcat/Km", "setting": "purified protein [4]", "value": 1320, "unit": "M⁻¹ s⁻¹"}, {"measurement": "stoichiometry N", "setting": "[5]", "value": 2}]}
{"molecule": "NagA (Streptomyces coelicolor A3(2)) (protein) MAPSKVLAGARVVLPTGTVDDGRVIVDGARIADTAPPQAETVDLAGHWVVPGFVDIHNHGGGGASFAGGTAEEILAGVETHRRHGTTTVVASAVTGDLDFLARHAGMLAELAQQGDIVGIHFEGPFISPCRKGAHDEQLLRDPDPAEVRKLVDAAHGHAKMMTLATELPGGLDSVRLLVEHGVIAAVGHTDATYEQTVQAIDAGATVATHLFNAMPPVGHRAPGPITALLEDERITVELINDGTHLHPAALQLAFHHAGAARVAFITDAMDAAGFGDGHYLLGPLEVEVADGVARLVEGGSIAGSTLTLDRAFKRAVTVDRLPVGDVVAAISANPARLLGLDDRIGSLEPGKDADLVVLDDAFDLVGVMRRGEWVVDPHLG", "values": [{"measurement": "Km", "setting": "purified protein [3]; [8]", "value": "1.59 ± 0.21", "unit": "mM"}, {"measurement": "kcat", "setting": "purified protein [3]; [8]", "value": "160 ± 9.02", "unit": "s⁻¹"}, {"measurement": "kcat/Km", "setting": "purified protein [3]; [8]", "value": 101000, "unit": "M⁻¹ s⁻¹"}, {"measurement": "Km", "setting": "purified protein [4]; [8]", "value": "2.40 ± 0.44", "unit": "mM"}, {"measurement": "kcat", "setting": "purified protein [4]; [8]", "value": "14.6 ± 1.1", "unit": "s⁻¹"}, {"measurement": "kcat/Km", "setting": "purified protein [4]; [8]", "value": 6060, "unit": "M⁻¹ s⁻¹"}, {"measurement": "Km", "setting": "purified protein [6]", "value": "2.84 ± 0.41", "unit": "mM"}, {"measurement": "kcat", "setting": "purified protein [6]", "value": "29.2 ± 2.31", "unit": "s⁻¹"}, {"measurement": "kcat/Km", "setting": "purified protein [6]", "value": 10300, "unit": "M⁻¹ s⁻¹"}]}
